The RNAGym collection of RNA variant scans (doi:10.7554/elife.80360)

B1: Hairpin Ribozyme (parent)
chain: GUCCUCUUUCACGUGCGCGUGAAAGAGAGAAGUGAACCAGAGAAACACACGUUGUGGUAUAUUACCUGGUA

Variants of: B1
Assay: self-cleavage, relative activity (ratio to wild type); higher = more cleavage; co-transcriptional
In the case of U62G G68C, the self-cleavage is reported as 0.186.
For A61C G69C, the self-cleavage was 0.0992.
For U67A U70C, the self-cleavage was 0.247.
A59U U67G gave a self-cleavage of 0.143.
U63G A71U showed a self-cleavage of 0.117.
In the case of A59C U60G, the self-cleavage is reported as 0.274.
With A59C U60A the self-cleavage was 0.223.
U60A C65U showed a self-cleavage of 0.301.
Work on U60A C65G yielded a self-cleavage of 0.254.
In the case of A59U C66A, the self-cleavage is reported as 0.128.
Work on A59U C66G yielded a self-cleavage of 0.185.
Variant U70A A71U has a self-cleavage of 1.63.
U70A A71G gave a self-cleavage of 0.886.
With A61U C66G the self-cleavage was 0.233.
A59U U60A showed a self-cleavage of 0.195.
With G68A A71G the self-cleavage was 0.174.
For A61C A71G, the self-cleavage was 0.286.
Work on A59U C65A yielded a self-cleavage of 0.19.
U60G gave a self-cleavage of 0.615.
Variant U60C has a self-cleavage of 1.16.
For U60A, the self-cleavage was 0.849.
Variant U58C A61G has a self-cleavage of 0.
U58C G68C showed a self-cleavage of 0.243.
U63C G69C gave a self-cleavage of 0.28.
In the case of U63C G69U, the self-cleavage is reported as 0.183.
With C66A G69U the self-cleavage was 0.156.
For C66A G69C, the self-cleavage was 0.239.
For U62C C66G, the self-cleavage was 0.213.
In the case of U62C C66U, the self-cleavage is reported as 0.189.
U60C U63G showed a self-cleavage of 0.136.
In the case of U60A G68A, the self-cleavage is reported as 0.298.
With U63A U70C the self-cleavage was 0.36.
With U60A C66U the self-cleavage was 0.274.
U60A C66A gave a self-cleavage of 0.365.
Work on C65G U67G yielded a self-cleavage of 0.0652.
C65U U70G showed a self-cleavage of 0.148.
Work on C65U U70C yielded a self-cleavage of 0.111.
A64U C65G showed a self-cleavage of 0.188.
Variant A61U U63A has a self-cleavage of 0.123.
G68A gave a self-cleavage of 0.282.
G68C showed a self-cleavage of 0.212.
G68U gave a self-cleavage of 0.254.
Variant U58G U70C has a self-cleavage of 0.84.
U62C U70G gave a self-cleavage of 0.126.
With C66A G68A the self-cleavage was 0.126.
Work on U63G A64C yielded a self-cleavage of 0.191.
U63G A64U showed a self-cleavage of 0.157.
A59C A64C gave a self-cleavage of 0.111.
In the case of A59C A64G, the self-cleavage is reported as 0.1.
C66U G68A showed a self-cleavage of 0.0865.
C66U G68U showed a self-cleavage of 0.334.
For U58C C66G, the self-cleavage was 0.154.
Work on C65A A71C yielded a self-cleavage of 1.07.
Variant U63A C65G has a self-cleavage of 0.173.
Variant U67C G68C has a self-cleavage of 0.178.
A59U G68A showed a self-cleavage of 0.231.
A59U G68U gave a self-cleavage of 0.188.
For U63G U67A, the self-cleavage was 0.159.
U60A U62C showed a self-cleavage of 0.373.
U60A U62A showed a self-cleavage of 0.0542.
With U60A U62G the self-cleavage was 0.0972.
For U62A C66U, the self-cleavage was 0.143.
In the case of A59G G68C, the self-cleavage is reported as 0.144.
In the case of U60C U62A, the self-cleavage is reported as 0.253.
For U60C U62C, the self-cleavage was 0.569.
In the case of A59C A71C, the self-cleavage is reported as 0.304.
For G68U G69C, the self-cleavage was 0.136.
With A59C C66U the self-cleavage was 0.107.
Variant C66U U67A has a self-cleavage of 0.162.
Work on A59G A64U yielded a self-cleavage of 0.181.
Work on U58G G69A yielded a self-cleavage of 0.292.
U58G G69C gave a self-cleavage of 0.142.
For A59G A71C, the self-cleavage was 0.444.
For U60G A61U, the self-cleavage was 0.259.
For U63A A71C, the self-cleavage was 0.287.
For U62A U70G, the self-cleavage was 0.16.
U63C C66A gave a self-cleavage of 0.23.
In the case of A59G G69C, the self-cleavage is reported as 0.161.
Work on U67G G69C yielded a self-cleavage of 0.13.
For U67G G69U, the self-cleavage was 0.165.
For U58C C65U, the self-cleavage was 0.55.
For U60C A61C, the self-cleavage was 0.264.
Work on U60A A71G yielded a self-cleavage of 0.839.
In the case of U62G U70A, the self-cleavage is reported as 0.163.
U60G A64C showed a self-cleavage of 0.186.
U60G A64G showed a self-cleavage of 0.335.
Variant U60A A64C has a self-cleavage of 0.206.
Work on U60A A64G yielded a self-cleavage of 0.353.
U60A A64U gave a self-cleavage of 0.0988.
With U58G A64U the self-cleavage was 0.218.
For A61U U67C, the self-cleavage was 0.175.
With A61U U67A the self-cleavage was 0.178.
A61U U67G gave a self-cleavage of 0.129.
U60G G69A showed a self-cleavage of 0.0995.
In the case of U60G G69C, the self-cleavage is reported as 0.317.
Work on C66U U70A yielded a self-cleavage of 0.356.
With C66U U70C the self-cleavage was 0.506.
In the case of A59G U62A, the self-cleavage is reported as 0.144.
With A61G C65A the self-cleavage was 0.159.
Work on A61G C65G yielded a self-cleavage of 0.303.
In the case of G69U U70A, the self-cleavage is reported as 0.346.
A61C U70C gave a self-cleavage of 0.169.
G69A U70A gave a self-cleavage of 0.434.
A59C G68C gave a self-cleavage of 0.227.
A61G U67A showed a self-cleavage of 0.328.
U62G A71G showed a self-cleavage of 0.143.
For U62G A71C, the self-cleavage was 0.281.
For U67G G68A, the self-cleavage was 0.138.
Work on A59U U63C yielded a self-cleavage of 0.12.
For U60G G68C, the self-cleavage was 0.127.
A61C C65G showed a self-cleavage of 0.189.
In the case of U58G U63C, the self-cleavage is reported as 0.271.
Work on U67G A71C yielded a self-cleavage of 0.37.
Variant U62A G68U has a self-cleavage of 0.28.
For C65G A71G, the self-cleavage was 0.187.
C65G A71C gave a self-cleavage of 0.697.
For C65G A71U, the self-cleavage was 0.219.
Work on U58C A71G yielded a self-cleavage of 1.31.
Variant U58C A71U has a self-cleavage of 0.935.
For A64G G69U, the self-cleavage was 0.116.
In the case of U58A U60A, the self-cleavage is reported as 0.509.
In the case of U58A U60G, the self-cleavage is reported as 0.646.
A59C showed a self-cleavage of 0.171.
A59U showed a self-cleavage of 0.157.
Work on A59G yielded a self-cleavage of 0.17.
C65A C66G gave a self-cleavage of 0.0953.
For A59G C66U, the self-cleavage was 0.0625.
Variant A61U A71U has a self-cleavage of 0.171.
Work on A64C C65G yielded a self-cleavage of 0.161.
U67C G69C gave a self-cleavage of 0.188.
For A64C U70G, the self-cleavage was 0.127.
A64U U67G gave a self-cleavage of 0.13.
For U62G U67C, the self-cleavage was 0.133.
In the case of U62G U67G, the self-cleavage is reported as 0.127.
In the case of U62C A71G, the self-cleavage is reported as 0.236.
With U62C A71U the self-cleavage was 0.277.
In the case of G68A U70G, the self-cleavage is reported as 0.3.
